Key:
[1] = molecular target: human α1β1 integrin (human) (UniProt P56199); test: inhibition of adhesion of α1K562 cells to immobilised collagen IV
[2] = molecular target: α6β1 integrin (UniProt P23229); test: inhibition of adhesion of α6K562 cells to laminin
Sequence of α6β1 integrin (P23229 24-1130, chain 1 of 2): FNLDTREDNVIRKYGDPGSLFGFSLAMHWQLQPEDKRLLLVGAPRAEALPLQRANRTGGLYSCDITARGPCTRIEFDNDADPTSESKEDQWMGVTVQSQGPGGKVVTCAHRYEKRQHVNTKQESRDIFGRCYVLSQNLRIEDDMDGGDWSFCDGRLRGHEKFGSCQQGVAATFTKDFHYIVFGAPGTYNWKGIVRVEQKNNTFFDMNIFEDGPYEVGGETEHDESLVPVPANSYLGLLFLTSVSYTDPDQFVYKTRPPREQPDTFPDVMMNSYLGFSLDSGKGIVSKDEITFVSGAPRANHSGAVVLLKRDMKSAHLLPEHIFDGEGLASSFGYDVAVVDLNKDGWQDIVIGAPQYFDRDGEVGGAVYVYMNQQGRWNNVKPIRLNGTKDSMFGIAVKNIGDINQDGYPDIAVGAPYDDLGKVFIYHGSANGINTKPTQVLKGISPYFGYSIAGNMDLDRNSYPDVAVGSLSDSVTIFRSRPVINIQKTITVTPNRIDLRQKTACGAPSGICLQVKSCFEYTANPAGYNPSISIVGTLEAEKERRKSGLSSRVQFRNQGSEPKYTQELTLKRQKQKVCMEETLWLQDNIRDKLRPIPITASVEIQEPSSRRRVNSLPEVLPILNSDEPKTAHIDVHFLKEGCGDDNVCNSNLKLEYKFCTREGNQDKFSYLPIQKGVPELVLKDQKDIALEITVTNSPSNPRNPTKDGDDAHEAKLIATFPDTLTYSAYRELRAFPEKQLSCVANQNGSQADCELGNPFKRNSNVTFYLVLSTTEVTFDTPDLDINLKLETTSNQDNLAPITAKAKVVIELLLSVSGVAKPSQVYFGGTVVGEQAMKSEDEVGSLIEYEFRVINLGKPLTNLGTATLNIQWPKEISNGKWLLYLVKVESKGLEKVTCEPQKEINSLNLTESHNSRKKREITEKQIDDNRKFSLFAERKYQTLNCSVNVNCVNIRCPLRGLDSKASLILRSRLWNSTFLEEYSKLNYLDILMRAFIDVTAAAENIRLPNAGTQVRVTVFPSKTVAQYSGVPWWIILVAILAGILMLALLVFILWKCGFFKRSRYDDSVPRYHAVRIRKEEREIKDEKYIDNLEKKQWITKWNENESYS
Sequence of α6β1 integrin (P05556 21-798, chain 2 of 2, further chain): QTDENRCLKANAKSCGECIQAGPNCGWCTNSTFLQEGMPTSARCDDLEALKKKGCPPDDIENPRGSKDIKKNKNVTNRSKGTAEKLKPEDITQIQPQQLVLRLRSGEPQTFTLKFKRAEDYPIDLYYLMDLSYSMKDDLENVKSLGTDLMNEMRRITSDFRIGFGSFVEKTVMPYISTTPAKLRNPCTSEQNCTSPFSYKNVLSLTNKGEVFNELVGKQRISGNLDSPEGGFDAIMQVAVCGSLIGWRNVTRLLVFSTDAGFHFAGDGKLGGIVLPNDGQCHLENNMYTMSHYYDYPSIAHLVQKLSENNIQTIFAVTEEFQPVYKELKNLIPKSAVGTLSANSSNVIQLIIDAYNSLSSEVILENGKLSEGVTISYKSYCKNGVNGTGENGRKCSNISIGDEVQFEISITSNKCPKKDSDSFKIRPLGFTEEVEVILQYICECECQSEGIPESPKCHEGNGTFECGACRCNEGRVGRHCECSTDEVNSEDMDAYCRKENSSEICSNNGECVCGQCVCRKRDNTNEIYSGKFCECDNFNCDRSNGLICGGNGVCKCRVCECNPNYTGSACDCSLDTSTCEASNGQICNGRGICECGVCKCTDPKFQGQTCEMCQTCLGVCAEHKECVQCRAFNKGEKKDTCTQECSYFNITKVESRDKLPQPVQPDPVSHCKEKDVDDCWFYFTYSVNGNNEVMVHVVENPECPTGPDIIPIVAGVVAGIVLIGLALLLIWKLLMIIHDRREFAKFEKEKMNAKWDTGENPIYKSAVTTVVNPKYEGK

Sequence of human α1β1 integrin (human) (P56199 29-1179, chain 1 of 2): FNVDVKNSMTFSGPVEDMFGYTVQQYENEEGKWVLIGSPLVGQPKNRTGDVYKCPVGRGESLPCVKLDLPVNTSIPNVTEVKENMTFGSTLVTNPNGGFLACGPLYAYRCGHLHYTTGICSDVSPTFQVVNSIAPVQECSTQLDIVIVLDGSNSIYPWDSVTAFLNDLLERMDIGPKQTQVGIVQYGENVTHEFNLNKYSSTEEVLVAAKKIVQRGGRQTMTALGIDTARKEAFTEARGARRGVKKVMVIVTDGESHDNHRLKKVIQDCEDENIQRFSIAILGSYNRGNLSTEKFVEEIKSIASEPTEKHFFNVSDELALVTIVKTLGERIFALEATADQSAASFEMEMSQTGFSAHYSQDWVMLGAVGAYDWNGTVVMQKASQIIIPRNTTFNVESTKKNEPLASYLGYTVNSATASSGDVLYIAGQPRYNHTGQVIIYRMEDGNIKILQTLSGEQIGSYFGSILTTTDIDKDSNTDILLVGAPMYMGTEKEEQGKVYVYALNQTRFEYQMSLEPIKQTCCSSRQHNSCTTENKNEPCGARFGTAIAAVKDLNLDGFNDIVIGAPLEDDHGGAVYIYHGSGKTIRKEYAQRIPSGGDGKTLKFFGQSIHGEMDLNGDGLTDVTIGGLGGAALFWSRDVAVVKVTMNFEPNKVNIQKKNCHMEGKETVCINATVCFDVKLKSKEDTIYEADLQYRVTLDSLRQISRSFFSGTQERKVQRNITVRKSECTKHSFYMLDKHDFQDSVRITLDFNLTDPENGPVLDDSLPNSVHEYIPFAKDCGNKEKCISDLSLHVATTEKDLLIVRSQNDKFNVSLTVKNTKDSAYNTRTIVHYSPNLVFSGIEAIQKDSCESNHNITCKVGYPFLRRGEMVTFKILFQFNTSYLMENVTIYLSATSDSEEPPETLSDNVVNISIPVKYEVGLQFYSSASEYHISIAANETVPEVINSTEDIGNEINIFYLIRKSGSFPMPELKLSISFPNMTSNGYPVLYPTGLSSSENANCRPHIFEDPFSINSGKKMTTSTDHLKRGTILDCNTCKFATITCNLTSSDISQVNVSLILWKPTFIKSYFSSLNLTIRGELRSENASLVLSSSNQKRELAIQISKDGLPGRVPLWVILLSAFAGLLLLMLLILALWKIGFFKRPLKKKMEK
Sequence of human α1β1 integrin (human) (P05556 21-798, chain 2 of 2, further chain): as the sequence (P05556 21-798, chain 2 of 2, further chain) above

“Ethylpyridylated obtustatin (EP-obtustatin) (peptide)” was tested, and the IC50 [1] was 30 µM.

In the case of “echistatin (from UniProt P17347 131-179) (peptide)”, the IC50 [2] is reported as > 10 µM.

“eristostatin (from UniProt P0C6S4 1-49) (peptide)” was tested, and the IC50 [2] was > 10 µM.

obtustatin (peptide) was tested, and the IC50 [2] was > 10 µM.

In the case of viperisrastatin (peptide), the IC50 [2] is reported as > 10 µM.
